# Measurements as given in the DeepSol protein solubility set.
# Assay: soluble on expression in E. coli; label from the status in PepcDB or PDB records
row,Sequence,soluble on expression in E. coli
1,MVNTRPPKIDELLKIDPYLHDFQDEISRRYGVFLDYQRRIEECGGMEEFTSSYKQFGLNVQPDNSVKGLEWAPAAEKLALIGDFNNWDQNANVYKKEEHGKWSITVPAKEDGSCPIPHNSVIKIAVSRHGATHFKLSPWATFVTCPNPKETVIYHQNFWNPPEKYQLKEARPARPASLRIYEAHVGISSSEGKINTYREFADDVLPRIQKQGYNAIQLMAVMEHVYYASFGYQVSNFFAVSSRCGTPEDLKYLVDKAHSLGIFMLLDVVHSHASKNVEDGLNQWDGSNGGYFHDNARGYHNLWDSRLFDYTQTETLRFLLSNVRWWVEEYGFDGFRFDGVSSMIYHSHGMNDDFCGGYPMYFGLNADTDSLVYLMLANDFLHKKYPFMITIAEEVSGMPGICRPVEEGGQGFDYRLAMALPDMWIKILKHTSDEDWKIDDIVFNLENRRYAEKHVAYAESHDQALVGDKTIAFWLMDKEMYDFMSTDSPLTPIIDRGLSLHKLIRLITIGLGGEAWLNFIGNEFGHPEWLDFPRVGNGESFHYARRQFNLVDAEYLRYKFLNNWDREMMLLEERTGFLHKGYAYTSWKHDGDKTIVFERGGLVFVINLHPTKSFADYSIGVNTPGRYRIALNSDESKFGGHNRIDNSIKFHTTDDGYAGRRHRLQVYITCRTAIVLEKEDD,not soluble
2,MGIPSDFSNTGLTGFNVSSTKLVKIEQQYKGVKGKKFISPGGGKFVRIDDPGAVDSNGLRTADASNTSISLETGNTWLPRLHADGTLTCGGKCAWLECTNVTIPKNKRLWFRYAFLRFSSLPADSFSVLLCFPNDDTSVPPLPPYWICSVKELQENRGNINQTDWTECFVEIDKNADFHGTLRWVVATGHNLADQNSIPDNTRFTRPGCLLIDAIDIR,not soluble
3,MSLNNMRLFKKSLLAVTVTLATQQAFAAGFQLNAQSATGLGRAFAGDAVIADNAAVMSRNPAAMALFDEMALSLGFETITTMIDVKNVSYRGVLGNSVSVQDTDDVGGTSVAPNIHLIVPVNEQFAWGVNAYSNFGTKTEFSDSYPASEYGGLTDVKSFNLGLAGSYRVNKEWSFGAGLDLIYGQGTMKRIAGTSFPASTIVVNPTTVIPARGTSLLNVDKADGWAVGFNLGTVYEMDENNRFGLSYRYSPEFKAKDDYGQEITLPLPDIAEFSGFHKIENTQFAVHYSVQWIGWSAFDKIEFRNLVTSRSSVGALTKGSYDKMYEWQDGWHYSIGGTYYLNSDWTLRAGYMYDTSAQDSRTSISVPDSDRQWLSAGFTYNIDDKSNVDFGFTYLMGKDVAVSENDAGSKLTATTHADAILLGLQYSRTFEGGSHHHHHH,soluble
4,MKEYRLTDWLPTTKKEVELRGWDELDVILFSGDAYVDHPSFGAAVIGRILEAEGLKVAIIPQPNWRDDLRDFRKLGRPRLFFGISAGSMDSMVNKYTANKRLRSEDAYTPDGRPDMRPEYPSIVYSQILKRLYPDVPVILGSIEASLRRLSHYDYWQDKVQKSILCDSGADLLIYGMGEKPIVELTRKMKELLPAEDASLTAGELKKIAGTIPQTAYLCRATEWTPAADDIQLYSHEECLADKKKQASNFRHIEEESNKYAASRITQEVDNKVVVVNPPYPPMSQEELDHSYDLPYTRLPHPKYKGKRIPAYDMIKFSVNIHRGCFGGCAFCTISAHQGKFIVSRSKKSILNEVKEVMQLPDFKGYLSDLGGPSANMYQMKGKDEAICKKCKRPSCIHPKVCPNLNSDHCPLLDIYKAVDAIPGIKKSFIGSGVRYDLLLHQSKDAATNRSTAEYTRELIVNHVSGRLKVAPEHTSDRVLSIMRKPSFEQFETFKKIFDRINREENLRQQLIPYFISSHPGCKEEDMAELAVITKRLDFHLEQVQDFTPTPMTVATEAWYSGFHPYTLEPVFSAKTQREKLAQRQFFFWYKPEERKNILNELRRIGRQDLIDKLYGKRNK,not soluble
5,MSLKLARINLSRDDIHKRLGGGIPYGSIILVEGEESTGKSIIAQRLAYGFLQTAHSVTYTSTQLTTLEFVKQMMSLNYNINKKLLSGTLLYIPVYPLISDNTQKDDFIKKIMETRAFYEKDIVIFDSLSSLIVNDASDIKVNDLMAFFKRIASMNKVIIYTINPKELPESILTLLRSSATMVLKTEIYTFGGNIKNLVKIEKYNLAQGPFQKLMVFRVEPKLGIAVEISSVAEGHHHHHH,soluble
6,MNTRQLLSVGIDIGTTTTQVIFSRLELVNRAAVSQVPRYEFIKRDISWQSPVFFTPVDKQGGLKEVELKALILAQYQAAGIAPESVDSGAIIITGESAKTRNARPAVMALSQSLGDFVVASAGPHLESVIAGHGAGAQSLSEQRMCRVLNIDIGGGTSNYALFDAGKVSGTACLNVGGRLLETDAQGRVVYAHQPGQMIIDEVFGSGTDARALAAAQLGQVARRMADLIVEVITGALSPLAQSLMQTGLLPADITPEVITLSGGVGECYRNQPADPFCFSDIGPLLATALHEHPRLREMNVQFPAQTVRATVIGAGAHTLSLSGSTIWLEDVQLPLRNLPVAIPQDDADLVNAWRQALLQLDLDPQTDAYVLALPATLPVRYAALLTVINALTAFVARYPNPHPLLVVAEQDFGKALGMLLRPQLPQLPLAVIDEVVVRAGDYIDIGTPLFGGSVVPVTVKSLAFPS,not soluble
7,MVWSSETFGMTPEEQIEWMALDDQEKKKLERKRARNRQAATKCRQKKMDRIKELEEQVLHEKHRGQRLDAELLELNRALEHFRRTVEHHSGNGCPNNSIRV,not soluble
8,MAINLQTLFKKKREGKKITMVSTYDYWSAKLCDEVGIDCILVGDSLGTVVKGEGDTLSVTLEEIIYHTKCVMRGVKNAFVIADMPFMSYQVSMEKAVENCGRVIKETKAKAVKLEGGEEIAELVYKLTRIGIPVVGHVGFTPQHINVFGKPKVVGKKKEEEEKLRRDFRALEEAGAFMIVLESVPTHLAKELWKGSNSIVIGIGAGKYVDGQVLVFHDIVGLFEDFKPKFVRRYLEGAKLVKEALKNFKIDVEGGNFPSEEESYG,not soluble
9,GGSHMKSYEIALIGNPNVGKSTIFNALTGENVYIGNWPGVTVEKKEGEFEYNGEKFKVVDLPGVYSLTANSIDEIIARDYIINEKPDLVVNIVDATALERNLYLTLQLMEMGANLLLALNKMDLAKSLGIEIDVDKLEKILGVKVVPLSAAKKMGIEELKKAISIAVKDKKTAEIKYPNFEPYIKKIT,soluble
10,VDGDQCESNPCLNGGSCKDDINSYECWCPFGFEGKNCEL,soluble
11,STRHPENYQWENWSLENVATILAHRFPNSYIWVIKCSRMHLHKFSCYDNFVKSNMFGAPEHNTDFGAFKHLYMLLVNAFNLSQNSLSKKSLNVWNKDSIASNCRSSPSHTTNGCQGEKVRTCEKSDESAMSFYPPSLNDASFTLIGFSKGCVVLNQLLFELKEAKKDKNIDAFIKSIRTMYWLDGGHSGGSNTWVTYPEVLKEFAQTGIIVHTHVTPYQVRDPMRSWIGKEHKKFVQILGDLGMQVTSQIHFTKEAPSIENHFRVHEVF,soluble
12,MYEAIGHRVEDGVAEITIKLPRHRNALSVKAMQEVTDALNRAEEDDSVGAVMITGAEDAFCAGFYLREIPLDKGVAGVRDHFRIAALWWHQMIHKIIRVKRPVLAAINGVAAGGGLGISLASDMAICADSAKFVCAWHTIGIGNDTATSYSLARIVGMRRAMELMLTNRTLYPEEAKDWGLVSRVYPKDEFREVAWKVARELAAAPTHLQVMAKERFHAGWMQPVEECTEFEIQNVIASVTHPHFMPCLTRFLDGHRADRPQVELPAGV,soluble
13,MGLQELDPLAQLSLPPGFRFYPTDEELMVEYLCRKAAGHDFSLQLIAEIDLYKFDPWVLPSKALFGEKEWYFFSPRDRKYPNGSRPNRVAGSGYWKATGTDKVISTEGRRVGIKKALVFYIGKAPKGTKTNWIMHEYRLIEPSRRNGSTKLDDWVLCRIYKKQTSAQKQAYNNLMTSGREYSNNGSSTSSSSHQYDDVLESLHEIDNRSLGFAAGSSNALPHSHRPVLTNHKTGFQGLAREPSFDWANLIGQNSVPELGLSHNVPSIRYGDGGTQQQTEGIPRFNNNSDVSANQGFSVDPVNGFGYSGQQSSGFGFI,soluble
14,MSLVKAVLFDIDGTLLSEKPLIMFILPQVYDELANKLNISRMEARRIFLSEIEKRKGKYEWHDWNFFFRLFSLPFKYEDFIMKYPTKIEVFPGVVEVLKYLKERGYRLGIVTSGPRYQVLKLKVSGIYRYFDVVVTRDDVGSIKPEPRIFLAALEKLKISPKDAVMVGDSLEQDILGAKGVGMKSVWINVGGENGYNLPDFEISSILQLPEVIEDESDIEGHHHHHH,soluble
